{
  "source": "patent CN103012589A",
  "about": "(SHANGHAI SERUM BIO TECHNOLOGY CO LTD; INST BIOENGINEERING …, dated 2013)",
  "target": "T1, 重组人VEGF165 (human, UniProt P15692-4 27-191)",
  "T1 construct": "also called VEGF双体; 人血管内皮细胞生长因子",
  "T1 sequence": "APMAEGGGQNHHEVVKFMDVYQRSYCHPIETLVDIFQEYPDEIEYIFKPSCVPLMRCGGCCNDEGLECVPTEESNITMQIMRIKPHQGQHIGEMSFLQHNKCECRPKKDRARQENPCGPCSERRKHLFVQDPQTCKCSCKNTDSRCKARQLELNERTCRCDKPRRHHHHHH",
  "test": "Biacore SPR, VEGF coupled on CM5 chip, whole antibody as analyte, 1:1 Langmuir fit",
  "data": [
    {"binder": "VA6L-K90D_D92V (antibody, V domains shown, also called VA6-3) VH: not shown VL: SYELTQPPSVSVAPGQTARITCSGDALGDKYASWYQQKPGQAPVLVIYEDSKRPSGIPERFSGSNSGNTATLTISGTQAEDEADYYCQVDSVNYGYVFGGGTKLTVLG", "values": [
      {"measurement": "Kd", "result": 5.27, "unit": "nM"},
      {"measurement": "koff", "result": 0.00149, "unit": "s⁻¹"},
      {"measurement": "kon", "result": 283000, "unit": "M⁻¹ s⁻¹"}
    ]},
    {"binder": "VA6全抗体 (antibody, V domains shown, Whole antibody from vectors pABL (lambda) and pABG1 (human IgG1), HEK293T transient expression) VH: not shown VL: SYELTQPPSVSVAPGQTARITCSGDALGDKYASWYQQKPGQAPVLVIYEDSKRPSGIPERFSGSNSGNTATLTISGTQAEDEADYYCQVKSDNYGYVFGGGTKLTVLG", "values": [
      {"measurement": "Kd", "result": 12.7, "unit": "nM"},
      {"measurement": "koff", "result": 0.000445, "unit": "s⁻¹"},
      {"measurement": "kon", "result": 35000, "unit": "M⁻¹ s⁻¹"}
    ]},
    {"binder": "VA6-57 (antibody, IgG1, V domains shown, Whole antibody (IgG1, lambda); built further on VA6-3) VH: not shown VL: SYELTQPPSVSVAPGQTARITCSGDALGDKYASWYQQKPGQAPVLVIYEDSKRPSGIPERFSGSNSGNTATLTISGTQAEDEADYYCQVDSVNYGYVFGGGTKLTVLG", "values": [
      {"measurement": "Kd", "result": 1.8, "unit": "nM"},
      {"measurement": "koff", "result": 0.00096, "unit": "s⁻¹"},
      {"measurement": "kon", "result": 550000, "unit": "M⁻¹ s⁻¹"}
    ]}
  ]
}
